We go through four substances from PMC7039556.

Experiment [1] has as its target isolated human low-density lipoprotein (LDL) particles. Briefly: density gradient ultracentrifugation of PCSK9-LDL binding reactions, Western blot densitometry. Particulars: conditioned cell culture medium incubated with LDL; n = 4; read off a plot. In general terms: Immunoblotting shows a protein as a band on a membrane.
Experiment [2] deals with isolated human low-density lipoprotein (LDL) particles (human (endogenous in plasma)). The experiment is described as follows: co-sedimentation; Optiprep density gradient ultracentrifugation: 1 μg PCSK9 (concentrated conditioned medium) with 500 μg isolated human LDL in 1.0 ml HBS-C (25 mM HEPES-KOH pH 7.4, 150 mM NaCl, 2 mM CaCl2), 0.5% BSA, 37 °C 1 h; LDL fraction immunoprecipitated with anti-PCSK9 serum, PCSK9 quantified by Western blot and normalised to WT.

As to “FLAG epitope-tagged recombinant human WT PCSK9 (proprotein convertase subtilisin/kexin type-9) (from UniProt Q8NBP7) Y38F”, the ratio to parent in experiment [1] turned out to be 1. On to “FLAG epitope-tagged recombinant human WT PCSK9 (proprotein convertase subtilisin/kexin type-9) (from UniProt Q8NBP7) Y38L”, for which the ratio to parent in experiment [1] was determined as 0.92.

For the substance R469W and F515L substitutions (PCSK9), the percent decrease of LDL binding against WT PCSK9 in experiment [2] lay in the range of 60 to 70%. As for “human PCSK9 with the hydrophobic stretch (aa 41–45) and Arg-46 replaced by a glycine-serine linker (from UniProt Q8NBP7 31-152; Q8NBP7 153-692) (natural protein)”, in experiment [2], the percent reduction of LDL binding against WT PCSK9 is greater than 60%.
